Consider one molecule from paper PMC6386588 (Molecular cell, 2019).

In the experiment the target is H-Ras protein: His tagged: human wild type (MST) (human, UniProt P01112 1-189). Put plainly: MST.
Chain of H-Ras protein: His tagged: human wild type (MST) (P01112 whole entry): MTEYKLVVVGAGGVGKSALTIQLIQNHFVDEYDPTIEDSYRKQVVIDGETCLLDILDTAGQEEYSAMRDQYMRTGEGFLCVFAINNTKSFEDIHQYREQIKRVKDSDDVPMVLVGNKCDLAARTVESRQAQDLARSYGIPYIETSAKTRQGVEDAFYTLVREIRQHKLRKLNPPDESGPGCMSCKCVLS

B1: FHH:MAPKAP1^RBD (AA279-353) (domain or fragment, UniProt Q9BPZ7 279-353, looked up)
chain: LFVRINAAHGFSLIQVDNTKVTMKEILLKAVKRRKGSQKVSGPQYRLEKQSEPNVAVDLDSTLESQSAWEFCLVR
modifications: RED-tris-NTA dye on the His tag (Monolith His-Tag Labeling Kit)
B1: the binding result is “binds”.
